The values below come from US20130203080A1 (UNIVERSITE MONTPELLIER 2, published 2013).

In assay [1] the target is T1, PiT1 phosphate transporter on human cells (T cells, CD34 progenitor cells) (human, UniProt Q8WUM9 1-679).
T1 construct: whole, on cells; also called GaLV Env receptor
T1 sequence: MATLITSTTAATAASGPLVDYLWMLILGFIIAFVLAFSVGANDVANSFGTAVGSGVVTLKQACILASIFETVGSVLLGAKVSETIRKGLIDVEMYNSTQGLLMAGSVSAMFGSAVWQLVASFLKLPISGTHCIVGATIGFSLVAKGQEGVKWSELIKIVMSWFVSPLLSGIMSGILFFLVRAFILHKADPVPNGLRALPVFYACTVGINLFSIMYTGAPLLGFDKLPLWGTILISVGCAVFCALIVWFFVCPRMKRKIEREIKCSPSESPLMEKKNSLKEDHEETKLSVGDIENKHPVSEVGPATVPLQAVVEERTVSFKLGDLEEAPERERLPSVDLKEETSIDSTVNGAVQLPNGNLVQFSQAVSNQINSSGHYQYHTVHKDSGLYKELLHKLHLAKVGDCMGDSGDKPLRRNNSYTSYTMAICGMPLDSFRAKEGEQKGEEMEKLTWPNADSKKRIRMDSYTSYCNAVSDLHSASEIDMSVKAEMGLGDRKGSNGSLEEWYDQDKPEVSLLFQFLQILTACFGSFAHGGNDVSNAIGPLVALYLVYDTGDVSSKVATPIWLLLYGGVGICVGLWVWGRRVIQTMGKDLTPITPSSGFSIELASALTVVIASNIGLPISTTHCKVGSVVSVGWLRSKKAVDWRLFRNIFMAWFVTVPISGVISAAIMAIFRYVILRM
Put plainly: flow cytometry, tagged RBD on unstimulated and TCR-stimulated human T cells. On the technique in general: In flow cytometry, cells or beads pass a laser one at a time.

Assay [2] has as its target T2, PiT1 phosphate transporter on murine cells (CD4+ T cells; cerebellar cortex sections) (mouse, UniProt Q61609 1-681).
T2 construct: whole, on cells
T2 sequence: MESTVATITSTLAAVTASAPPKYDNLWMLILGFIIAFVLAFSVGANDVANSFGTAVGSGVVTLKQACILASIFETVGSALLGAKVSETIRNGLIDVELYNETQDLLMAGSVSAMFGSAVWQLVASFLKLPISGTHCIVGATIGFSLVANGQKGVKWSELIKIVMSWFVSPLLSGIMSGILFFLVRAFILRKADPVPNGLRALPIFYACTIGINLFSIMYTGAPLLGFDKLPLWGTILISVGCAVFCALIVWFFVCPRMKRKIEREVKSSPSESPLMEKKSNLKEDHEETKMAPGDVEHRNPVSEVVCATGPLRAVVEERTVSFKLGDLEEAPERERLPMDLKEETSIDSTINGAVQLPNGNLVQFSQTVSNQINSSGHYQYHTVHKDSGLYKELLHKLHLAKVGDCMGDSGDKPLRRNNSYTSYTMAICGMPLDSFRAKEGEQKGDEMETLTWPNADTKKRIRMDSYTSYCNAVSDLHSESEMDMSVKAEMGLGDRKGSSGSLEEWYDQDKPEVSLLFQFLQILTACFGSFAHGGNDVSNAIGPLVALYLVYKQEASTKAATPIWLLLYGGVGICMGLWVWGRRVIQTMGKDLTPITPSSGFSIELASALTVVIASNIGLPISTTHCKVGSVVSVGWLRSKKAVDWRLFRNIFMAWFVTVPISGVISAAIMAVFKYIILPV
Description: flow cytometry, RBD on murine CD4+ T cells polarised to Th0, Th1, Th2, Th17 or iTreg, day 4.

Assay [3] concerns the target T2, PiT1 phosphate transporter on murine …. Description: fluorescence staining of mouse cerebellum cryosections with RBD-rFc, biotinylated anti-rabbit IgG, Streptavidin-Alexa488.
For assay [4], the target named is T3, glucose transporter Glut1 on human cells (B cells, B-CLL cells, red blood cells, T cells) (human, UniProt P11166 1-492).
T3 construct: whole, on cells; Endogenous receptor on primary human cells; the species follows from the cells; also called HTLV Env receptor
T3 sequence: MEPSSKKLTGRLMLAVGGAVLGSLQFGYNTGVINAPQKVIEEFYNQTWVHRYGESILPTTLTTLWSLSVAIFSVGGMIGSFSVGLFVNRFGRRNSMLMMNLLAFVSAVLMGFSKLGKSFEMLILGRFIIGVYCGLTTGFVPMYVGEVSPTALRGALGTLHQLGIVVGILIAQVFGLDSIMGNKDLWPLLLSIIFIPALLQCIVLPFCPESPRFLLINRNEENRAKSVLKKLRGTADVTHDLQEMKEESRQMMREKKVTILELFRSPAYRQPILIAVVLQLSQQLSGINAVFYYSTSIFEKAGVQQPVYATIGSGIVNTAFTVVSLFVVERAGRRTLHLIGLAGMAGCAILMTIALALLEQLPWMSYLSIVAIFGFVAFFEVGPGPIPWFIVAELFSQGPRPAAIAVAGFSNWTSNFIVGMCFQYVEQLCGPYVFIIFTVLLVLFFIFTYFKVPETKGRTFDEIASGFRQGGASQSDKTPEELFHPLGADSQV
Put plainly: flow cytometry, GFP-tagged RBD on human red blood cells.

B1: Gibbon Ape Leukemia virus (GALV) Env receptor binding domain, tagged soluble receptor binding ligand (ligand)
chain: TSLQNKNPHQPMTLTWQVLSQTGDVVWDTKAVQPPWTWWPTLKPDVCALAASLESWDIPGTDVSSSKRVRPPDSDYTAAYKQITWGAIGCSYPRARTRMASSTFYVCPRDGRTLSEARRCGGLESLYCKEWDCETTGTGYWLSKSSKDLITVKWDQNSEWTQKFQQCHQTGWCNPLKIDFTDKGKLSKDWITGKTWGLRFYVSGHPGVQFTIRLKITNMPAVAVGPDLVLVEQGPPRTSLALPPPLPPREAPPPSLPDSNSTALATSAQTPTVRKTIVTLNTPPPTTGDRLFDLVQGAFLTLNATNPGATESCWLC
notes: also called GaLV RBD; not shown: tag not specified
Consider B1, for which the binding result in assay [1] and in assay [2] was “binds” in each case.

B2: Gibbon ape Leukemia Virus-RBD soluble RBD-rFc fusion protein (Fc fusion)
chain: TSLQNKNPHQPMTLTWQVLSQTGDVVWDTKAVQPPWTWWPTLKPDVCALAASLESWDIPGTDVSSSKRVRPPDSDYTAAYKQITWGAIGCSYPRARTRMASSTFYVCPRDGRTLSEARRCGGLESLYCKEWDCETTGTGYWLSKSSKDLITVKWDQNSEWTQKFQQCHQTGWCNPLKIDFTDKGKLSKDWITGKTWGLRFYVSGHPGVQFTIRLKITNMPAVAVGPDLVLVEQGPPRTSLALPPPLPPREAPPPSLPDSNSTALATSAQTPTVRKTIVTLNTPPPTTGDRLFDLVQGAFLTLNATNPGATESCWLC
notes: also called GRBD; not shown: rabbit IgG Fc (rFc)
Regarding B2, the binding result in assay [3] is recorded as “binds”.

B3: HTLV2 (SEQ ID NO: 28) tagged with a green fluorescent protein (GFP) (ligand)
chain: QQSRCTLTVGISSYHSSPCSPTQPVCTWNLDLNSLTTDQRLHPPCPNLITYSGFHKTYSLYLFPHWIKKPNRQGLGYYSPSYNDPCSLQCPYLGCQSWTCPYTGPVSSPSWKFHSDVNFTQEVSQVSLRLHFSKCGSSMTLLVDAPGYDPLWFITSEPTQPPPTSPPLVHDSDLEHVLTPSTSWTTKILKFIQLTLQSTNYSCMVC
notes: also called HRBD-EGFP; non antibody Glut1-ligand; not shown: green fluorescent protein tag (GFP / EGFP)
Turning to B3, in assay [4], the binding result is given as “binds”.
